{"source": "patent US20230136301A1", "about": "“Corticosteriod Reduction in Treatment with Anti-CD38 Antibody” (Janssen Biotech, Inc., priority 2021, published 2023)", "test_system": "patients with RRMM", "assay": "PAVO Part 3: treatment-emergent adverse events with DARA SC and corticosteroid tapering", "note": "Several values for one entry are separate records, joined by “and”; a condition that tells them apart may be missing. Equal values may be shown once.", "method": "The PAVO (MMY1004) trial is an open-label, nonrandomized, multicenter, phase lb study consisting of 3 parts. […] Safety was assessed, with an emphasis on IRRs, while corticosteroids were reduced and discontinued.\nThe purpose of Part 3 was to evaluate the safety of daratumumab 1,800 mg SC delivery without predose and postdose corticosteroids after a 3-week, 2-week, and 1-week tapering schedule to assess the safety of corticosteroid-free SC daratumumab administration. A total of 42 participants were treated. […] In conjunction, patients also received a 3-week, 2-week, or 1-week steroid tapering schedule (FIG. 2). The 3-week tapering schedule (corticosteroid-free by Cycle 1 Day 22) consisted of methylprednisolone (MP) given orally (PO)/IV pre-dose (Cycle 1 Day 1, 100 mg; Cycle 1 Day 8, 60 mg; Cycle 1 Day 15, 30 mg) and PO post-dose (Cycle 1 Day 1, 20 mg for 2 days; Cycle 1 Day 8, 20 mg for 1 day; Cycle 1 Day 15, 20 mg for 1 day). The 2-week tapering schedule (corticosteroid-free by Cycle 1 Day 15) consisted of MP given PO/IV pre-dose (Cycle 1 Day 1, 100 mg; Cycle 1 Day 8, 60 mg) and PO post-dose (Cycle 1 Day 1, 20 mg for 2 days; Cycle 1 Day 8, 20 mg for 1 day). The 1-week tapering schedule (corticosteroid-free by Cycle 1 Day 8) consisted of dexamethasone 20 mg administered IV pre-dose on Cycle 1 Day 1, without post-dose administration.\nThe 3-week, 2-week and 1-week steroid tapering schedules were assessed by “3+3” design, followed by cohort expansion to approximately 15 patients (3-week and 2-week tapering cohorts) or 12 patients (1-week tapering cohort). The dose-limiting toxicity (DLT) assessment period in the 3-week, 2-week and 1-week tapering cohorts were Cycle 1 Day 1 through Cycle 2 Day 4, Cycle 1 Day 1 through Cycle 1 Day 25, and Cycle 1 Day 1 through Cycle 1 Day 11, respectively. […] Grade 3 or 4 IRRs only qualified as DLTs if they occurred during corticosteroid reduction or discontinuation (not during Cycle 1 Day 1). For the 3-week and 2-week groups, IRRs reported at Cycle 1 Day 1 were not considered DLTs, as corticosteroids had not yet been reduced or discontinued. Up to approximately 12 patients could be enrolled in the 1-week tapering schedule to assess safety, including IRRs.\nSafety assessments included treatment-emergent adverse events (TEAEs), serious adverse events, and IRRs. All toxicities were graded according to the National Cancer Institute's Common Terminology for the Classification of Adverse Events (NCI-CTCAE) Version 4.03 (National Cancer Institute. Common Terminology Criteria for Adverse Events (CTCAE): Version 4.03.).\nThe safety and efficacy populations, defined as all patients who received ≥1 dose of study drug, was the primary population for analysis. […] The pharmacokinetic-evaluable population was defined as all patients who received ≥1 dose of study drug and provided ≥1 post-infusion pharmacokinetic sample. The immunogenicity population was defined as all patients who received ≥1 dose of study drug and provided ≥1 post-infusion immunogenicity sample.", "data": [{"substance": "DARA SC: 1,800 mg daratumumab co-formulated with 30,000 U rHuPH20 (2,000 U/mL, 15 mL), manual subcutaneous injection", "values": [{"measurement": "Grade ≥3 TEAEs, participants", "setting": "3-week taper", "value": 60, "unit": "%"}, {"measurement": "Nausea, participants", "setting": "3-week taper", "value": 53, "unit": "%"}, {"measurement": "Nervous system disorders", "setting": "3-week taper", "value": 46.7, "unit": "%"}, {"measurement": "Patients who died due to complications from DLBCL", "setting": "3-week taper", "value": "One"}, {"measurement": "TEAEs with an outcome of death", "setting": "3-week taper", "value": "No deaths"}, {"measurement": "Anemia, any grade TEAE", "setting": "3-week taper n=15", "value": "1 (6.7) n (%) and 1 (6.7%) n (%)"}, {"measurement": "Anemia, grade ≥3 TEAE", "setting": "3-week taper n=15", "value": "1 (6.7) n (%) and 1 (6.7%) n (%)"}, {"measurement": "Any TEAE", "setting": "3-week taper n=15", "value": "15 (100)^ n (%) and 15 (100.0%) n (%)"}, {"measurement": "Any grade ≥3 TEAE", "setting": "3-week taper n=15", "value": "9 (60.0) n (%) and 9 (60.0%) n (%)"}, {"measurement": "Arthralgia, any grade TEAE", "setting": "3-week taper n=15", "value": "3 (20.0) n (%) and 3 (20.0%) n (%)"}, {"measurement": "Asthenia, any grade TEAE", "setting": "3-week taper n=15", "value": "1 (6.7) n (%) and 1 (6.7%) n (%)"}, {"measurement": "Back pain, TEAE", "setting": "3-week taper n=15", "value": "1 (6.7%) n (%)"}, {"measurement": "Blood and lymphatic system disorders (SOC), TEAE", "setting": "3-week taper n=15", "value": "4 (26.7%) n (%)"}, {"measurement": "Blood and lymphatic system disorders (SOC), grade 3 or higher TEAE", "setting": "3-week taper n=15", "value": "3 (20.0%) n (%)"}, {"measurement": "Bone pain, TEAE", "setting": "3-week taper n=15", "value": "2 (13.3%) n (%)"}, {"measurement": "Bone pain, grade ≥3 TEAE", "setting": "3-week taper n=15", "value": "1 (6.7) n (%) and 1 (6.7%) n (%)"}, {"measurement": "Chills, TEAE", "setting": "3-week taper n=15", "value": "2 (13.3%) n (%)"}, {"measurement": "Constipation, TEAE", "setting": "3-week taper n=15", "value": "2 (13.3%) n (%)"}, {"measurement": "Cough, any grade TEAE", "setting": "3-week taper n=15", "value": "3 (20.0) n (%) and 3 (20.0%) n (%)"}, {"measurement": "Decreased appetite, TEAE", "setting": "3-week taper n=15", "value": "3 (20.0%) n (%)"}, {"measurement": "Diarrhea, any grade TEAE", "setting": "3-week taper n=15", "value": "4 (26.7) n (%) and 4 (26.7%) n (%)"}, {"measurement": "Dizziness, any grade TEAE", "setting": "3-week taper n=15", "value": "4 (26.7) n (%) and 4 (26.7%) n (%)"}, {"measurement": "Erythema, any grade TEAE", "setting": "3-week taper n=15", "value": "2 (13.3) n (%) and 2 (13.3%) n (%)"}, {"measurement": "Fatigue, any grade TEAE", "setting": "3-week taper n=15", "value": "4 (26.7) n (%) and 4 (26.7%) n (%)"}, {"measurement": "Gastrointestinal disorders (SOC), TEAE", "setting": "3-week taper n=15", "value": "9 (60.0%) n (%)"}, {"measurement": "General disorders and administration site conditions (SOC), TEAE", "setting": "3-week taper n=15", "value": "11 (73.3%) n (%)"}, {"measurement": "Headache, any grade TEAE", "setting": "3-week taper n=15", "value": "5 (33.3) n (%) and 5 (33.3%) n (%)"}, {"measurement": "Lymphopenia, grade ≥3 TEAE", "setting": "3-week taper n=15", "value": "2 (13.3%) n (%) and 2 (13.3) n (%)"}, {"measurement": "Metabolism and nutrition disorders (SOC), TEAE", "setting": "3-week taper n=15", "value": "7 (46.7%) n (%)"}, {"measurement": "Muscle spasms, any grade TEAE", "setting": "3-week taper n=15", "value": "1 (6.7) n (%)"}, {"measurement": "Musculoskeletal and connective tissue disorders (SOC), TEAE", "setting": "3-week taper n=15", "value": "6 (40.0%) n (%)"}, {"measurement": "Musculoskeletal and connective tissue disorders (SOC), grade 3 or higher TEAE", "setting": "3-week taper n=15", "value": "2 (13.3%) n (%)"}, {"measurement": "Nasopharyngitis, any grade TEAE", "setting": "3-week taper n=15", "value": "5 (33.3) n (%) and 5 (33.3%) n (%)"}, {"measurement": "Nausea, any grade TEAE", "setting": "3-week taper n=15", "value": "8 (53.5%) n (%) and 8 (53.3%) n (%) and 8 (53.3) n (%)"}, {"measurement": "Nervous system disorders (SOC), TEAE", "setting": "3-week taper n=15", "value": "7 (46.7%) n (%)"}, {"measurement": "Neutropenia, grade ≥3 TEAE", "setting": "3-week taper n=15", "value": "0 n (%)"}, {"measurement": "Oropharyngeal pain, TEAE", "setting": "3-week taper n=15", "value": "2 (13.3%) n (%)"}, {"measurement": "Pain in extremity, any grade TEAE", "setting": "3-week taper n=15", "value": "4 (26.7) n (%) and 4 (26.7%) n (%)"}, {"measurement": "Patients with a serious TEAE", "setting": "3-week taper n=15", "value": "6 (40.0%) n (%)"}, {"measurement": "Peripheral edema, any grade TEAE", "setting": "3-week taper n=15", "value": "1 (6.7) n (%) and 1 (6.7%) n (%)"}, {"measurement": "Pyrexia, any grade TEAE", "setting": "3-week taper n=15", "value": "4 (26.7) n (%) and 4 (26.7%) n (%)"}, {"measurement": "Respiratory, thoracic and mediastinal disorders (SOC), TEAE", "setting": "3-week taper n=15", "value": "6 (40.0%) n (%)"}, {"measurement": "Skin and subcutaneous tissue disorders (SOC), TEAE", "setting": "3-week taper n=15", "value": "6 (40.0%) n (%)"}, {"measurement": "Vomiting, TEAE", "setting": "3-week taper n=15", "value": "2 (13.3%) n (%)"}, {"measurement": "Anemia, TEAE of Grade >3", "setting": "PAVO Part 3", "value": 9.5, "unit": "%"}, {"measurement": "Serious TEAEs in SOC General disorders and administration site conditions", "setting": "PAVO Part 3", "value": 4.8, "unit": "%"}, {"measurement": "TEAEs in SOC General disorders and administration site conditions", "setting": "PAVO Part 3", "value": 71.4, "unit": "%"}, {"measurement": "Anemia, any grade TEAE", "setting": "Total n=42", "value": "7 (16.7) n (%) and 7 (16.7%) n (%)"}, {"measurement": "Anemia, grade ≥3 TEAE", "setting": "Total n=42", "value": "4 (9.5) n (%) and 4 (9.5%) n (%)"}, {"measurement": "Any grade ≥3 TEAE", "setting": "Total n=42", "value": "21 (50.0%) n (%) and 21 (50.0) n (%)"}, {"measurement": "Arthralgia, any grade TEAE", "setting": "Total n=42", "value": "10 (23.8) n (%) and 10 (23.8%) n (%)"}, {"measurement": "Asthenia, any grade TEAE", "setting": "Total n=42", "value": "7 (16.7) n (%) and 7 (16.7%) n (%)"}, {"measurement": "Back pain, TEAE", "setting": "Total n=42", "value": "6 (14.3%) n (%)"}, {"measurement": "Blood and lymphatic system disorders (SOC), TEAE", "setting": "Total n=42", "value": "11 (26.2%) n (%)"}, {"measurement": "Blood and lymphatic system disorders (SOC), grade 3 or higher TEAE", "setting": "Total n=42", "value": "8 (19.0%) n (%)"}, {"measurement": "Bone pain, TEAE", "setting": "Total n=42", "value": "7 (16.7%) n (%)"}, {"measurement": "Bone pain, grade ≥3 TEAE", "setting": "Total n=42", "value": "3 (7.1) n (%) and 3 (7.1%) n (%)"}, {"measurement": "Chills, TEAE", "setting": "Total n=42", "value": "5 (11.9%) n (%)"}, {"measurement": "Constipation, TEAE", "setting": "Total n=42", "value": "7 (16.7%) n (%)"}, {"measurement": "Cough, any grade TEAE", "setting": "Total n=42", "value": "7 (16.7) n (%) and 7 (16.7%) n (%)"}, {"measurement": "Decreased appetite, TEAE", "setting": "Total n=42", "value": "5 (11.9%) n (%)"}, {"measurement": "Diarrhea, any grade TEAE", "setting": "Total n=42", "value": "11 (26.2) n (%) and 11 (26.2%) n (%)"}, {"measurement": "Dizziness, any grade TEAE", "setting": "Total n=42", "value": "5 (11.9) n (%) and 5 (11.9%) n (%)"}, {"measurement": "Erythema, any grade TEAE", "setting": "Total n=42", "value": "6 (14.3) n (%) and 6 (14.3%) n (%)"}, {"measurement": "Fatigue, any grade TEAE", "setting": "Total n=42", "value": "9 (21.4) n (%) and 9 (21.4%) n (%)"}, {"measurement": "Gastrointestinal disorders (SOC), TEAE", "setting": "Total n=42", "value": "24 (57.1%) n (%)"}, {"measurement": "General disorders and administration site conditions (SOC), TEAE", "setting": "Total n=42", "value": "30 (71.4%) n (%)"}, {"measurement": "Headache, any grade TEAE", "setting": "Total n=42", "value": "7 (16.7) n (%) and 7 (16.7%) n (%)"}, {"measurement": "Lymphopenia, grade ≥3 TEAE", "setting": "Total n=42", "value": "3 (7.1) n (%) and 3 (7.1%) n (%)"}, {"measurement": "Metabolism and nutrition disorders (SOC), TEAE", "setting": "Total n=42", "value": "12 (28.6%) n (%)"}, {"measurement": "Muscle spasms, any grade TEAE", "setting": "Total n=42", "value": "4 (9.5) n (%)"}, {"measurement": "Musculoskeletal and connective tissue disorders (SOC), TEAE", "setting": "Total n=42", "value": "23 (54.8%) n (%)"}, {"measurement": "Musculoskeletal and connective tissue disorders (SOC), grade 3 or higher TEAE", "setting": "Total n=42", "value": "4 (9.5%) n (%)"}, {"measurement": "Nasopharyngitis, any grade TEAE", "setting": "Total n=42", "value": "11 (26.2) n (%) and 11 (26.2%) n (%)"}, {"measurement": "Nausea, any grade TEAE", "setting": "Total n=42", "value": "13 (31.0) n (%) and 13 (31.0%) n (%)"}, {"measurement": "Nervous system disorders (SOC), TEAE", "setting": "Total n=42", "value": "13 (31.0%) n (%)"}, {"measurement": "Neutropenia, grade ≥3 TEAE", "setting": "Total n=42", "value": "3 (7.1) n (%) and 3 (7.1%) n (%)"}, {"measurement": "Oropharyngeal pain, TEAE", "setting": "Total n=42", "value": "5 (11.9%) n (%)"}, {"measurement": "Pain in extremity, any grade TEAE", "setting": "Total n=42", "value": "8 (19.0) n (%) and 8 (19.0%) n (%)"}, {"measurement": "Patients who died during the study", "setting": "Total n=42", "value": 6, "unit": "patients"}, {"measurement": "Patients with a grade 3/4 TEAE", "setting": "Total n=42", "value": "18 (42.9%) n (%)"}, {"measurement": "Patients with a serious TEAE", "setting": "Total n=42", "value": "16 (38.1%) n (%)"}, {"measurement": "Peripheral edema, any grade TEAE", "setting": "Total n=42", "value": "5 (11.9) n (%) and 5 (11.9%) n (%)"}, {"measurement": "Pyrexia, any grade TEAE", "setting": "Total n=42", "value": "9 (21.4) n (%) and 9 (21.4%) n (%)"}, {"measurement": "Respiratory, thoracic and mediastinal disorders (SOC), TEAE", "setting": "Total n=42", "value": "15 (35.7%) n (%)"}, {"measurement": "Skin and subcutaneous tissue disorders (SOC), TEAE", "setting": "Total n=42", "value": "11 (26.2%) n (%)"}, {"measurement": "Vomiting, TEAE", "setting": "Total n=42", "value": "6 (14.3%) n (%)"}, {"measurement": "Patients who died due to progressive disease", "setting": "all cohorts, 1 in each cohort", "value": 3, "unit": "patients"}]}]}
